Test: yeast display, Sf9 membrane polyspecificity reagent, FACS + sequencing; frameworks hold sequencing errors
How it was run: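 Polyreactivity labels are assigned by the sorting gate from which each nanobody was recovered. The gates were low and high (top ~1%), set on anti-HA fluorescence for expression and streptavidin fluorescence for reagent binding. Before sorting, galactose-induced (36–48 hours) yeast display cells were stained for 1 hour at 4 °C with 10% biotinylated, detergent-solubilized Sf9 membrane reagent.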

Sequence | polyreactivity (PSR sort gate)
QVQLVESGGGLVQAGGSLRLSCAPSGSIFPYYAMGWYRQAPGKERELVAVITTSGGRTYYADSVKGRFTISRDNAKNTVYLQMNSLKPEDTAVYYCATDVRQGSGWRYYYWGQGTQVTVSS | high polyreactivity
QVQLVESGGGLVQAGGSLRLSCAPSGSIFRVYAMGWYRQAPGKERELVAAITIGTSTNYADSVKGRFTISRDNAKNTVYLQMNSLKPEDTAVYYCAAEWSYNLDSIASSPTSYDYWGQGTQVTVSS | low polyreactivity
QVQLVESGGGLVQAGGSLRLSCAPSGSISQTYAMGWYRQAPGKERELVAAISSSGASTYYADSVKGRFTISRDNAKNTVYLQMNSLKPEDTAVYYCAALGRYRYIYNYWGQGTQVTVSS | high polyreactivity
QVQLVESGGGLVQAGGSLRLSCAPSGSTFNYNAMVWYRQAPGKERELVARISWRGGSTYYADSVKGRFTISRDNAKNTVYLQMNSLKPEATAVYYCAATRYWYGSTYDYWGQGTQVTVSS | high polyreactivity
QVQLVESGGGLVQAGGSLRLSCAPSGSTFPQYAMGWYRQAPGKERELVADISSGVSTNYADSVKGRFTISRDNAKNTVYLLMNSLKPEDTAVYYCAAQAYVEGVYRYDYWGQGTQVTVSS | low polyreactivity
QVQLVESGGGLVQAGGSLRLSCAPSGSTFPWNAMGWYRQAPGKERELVAAIRTGGGRTYYADSVKGRFTISRDNAKNTVYLQMNSLKPEDTAVYYCNAYFTYWSQLYYWGQGTQVTVSS | high polyreactivity
QVQLVESGGGLVQAGGSLRLSCAPSGSTFRFYAMGWYRQAPGKERELVAVISSAGSTNYADSVKGRFTISRDNAQNTVYLQMNSLKPEDTAVYYCAAYRRYSIYNYWGQGTQVTVSS | high polyreactivity
QVQLVESGGGLVQAGGSLRLSCAPSGSTFTSYAMGWYRQAPGKDRELVAAITYGSGTTYADSVKGRFTISRDNAKNTVYLQMNSLKPEDTAVYYCAADFYYPVLGHGFPTYEYDYWGQGTQVTVSS | low polyreactivity
QVQLVESGGGLVQAGGSLRLSCAPSGSTFTSYAMGWYRQAPGKERELVAAITYGSGTTYADSVKGRFTISRDNAKNTVYLQMNSLKPEDTAVYYCAADFYYPVLGHGFPTYEYDYWGQGTQVTVSS | low polyreactivity
QVQLVESGGGLVQAGGSLRLSCAPSGSTFVRYAMGWYRQAPGKESELVAAISKSGVSTYYADSVKGRFTISRDNAKNTVNLQMNSLKPEDTAVYYCAAYARGVRRYRRYDYWGPGTQVTVSS | high polyreactivity
QVQLVESGGGLVQAGGSLRLSCAPSGSTFVYYAMGWYRPAPGKERELVAAINRSGTRTYYADSVKGRFSISRDNAKNTVYLQMNSLKPEDTAVYYCDKAVQGKYGYWGQGTQVTVSS | high polyreactivity
QVQLVESGGGLVQAGGSLRLSCAPSGSTFYKNAMGWYRQAPWKERELVAGISRRGGRTYYADSVKGRFSISRDNAKNTVYLQMNSLKPEDTAVYYCNARLLSGPGYDYWGQGTQVTVSS | low polyreactivity
QVQLVESGGGLVQAGGSLRLSCAPSGSTFYYYAMGWYRQAPGKERELVAAITYRGGTYYADSVKGRFTISRDNAKNTVYLQMNSLKPEDTAVYYCAAPLSRIMDYWGQGTQVTVSS | high polyreactivity
QVQLVESGGGLVQAGGSLRLSCAPSGSTLNVYAMGWYRQAPGKERELVAAIRWSGDTYYADSVKGRFTISRDNAKNTVYLQMNSLKPEDTAVYYCAADPGTTYWQRFDYWGQGTQVTVSS | low polyreactivity
QVQLVESGGGLVQAGGSLRLSCAPSGYIFPFNALGGYRQAPGKERELVAAINNGGRTYYADSVKGRFTISRDNAKNTVFLQMHSLKPEDTAVDSCAAGSKSDMDWGQGTQVTVSS | low polyreactivity
QVQLVESGGGLVQAGGSLRLSCAPSGYTFARYAMGWSRQAPGKDRELVAAITSSGGSTYYADSVKGRFTSSRDNAKNTVYLQMNSLKPEDTAVYYCNARGFQKSDPRGYLILNYWGQGTQVTVSS | high polyreactivity
QVQLVESGGGLVQAGGSLRLSCAPSRRIFRSYAMGWYSQAPGKERELVAAISSRGSTYYADSVKGRFTISRDNEKNTVFLQMNSLKPEDTAVYYCAVHLWVYPLKREFYWGQGTQVTVSS | high polyreactivity
QVQLVESGGGLVQAGGSLRLSCASSGFAYSYYAMGWYRQAPGKEREFVASIDWSGGSTYYADSVKGRITISRDNAMNTVYLQMNSLKPEATAVYYCAAELDYFPGYDSWGQGTQVTVSS | low polyreactivity
QVQLVESGGGLVQAGGSLRLSCASSGFIFPWNAMGWYRQAPGKERELVADISTGTSRTYADSVKGRFTISRDNAKNTVYFQMNSLKPEDTAVYYFNKAHNYKYDWGQGTQVTVSS | low polyreactivity
QVQLVESGGGLVQAGGSLRLSCASSGFIFYYNAMGWYRQAPVKERELVAAISYGGGSTYYADSVKGRFTISRDNAKNTVYLQMNSLKPEDTAVYYCSARVYWWNASLAGNYWGQGTQVTVSW | low polyreactivity
QVQLVESGGGLVQAGGSLRLSCASSGFSFDYYVMGWYRQAPGKEMELVASNRSRGASTHYADSVKGRFTISRDNAKNTVYLQMNRLKTEDTAVYYCAKGGGYRRAARSFGGGDYWGQGTHVTVSS | low polyreactivity
QVQLVESGGGLVQAGGSLRLSCASSGFTFARYAMGWYRPAPGKEREFVAAIDKSGGSTYYADSVTGRFTISRDNAKNTVYLQMNSLKPEDTAVYYCAAGFGRVFSSIYGYWGQGTQVTVSS | high polyreactivity

Sequence | polyreactivity (PSR sort gate)
QVQLVESGGGLVQAGGSLRLSCASSGFTFGWYDMGWYRQAPGKERELVASISWSGSSTYYADSVKGRFTISRDNAKNTVYLQLNSLKPEDTAVYYCNAVSVDYVNWYWYDYWGQGTQVTVSS | high polyreactivity
QVQLVESGGGLVQAGGSLRLSCASSGFTFKFNAMGWYRPAPGKERELVAAISQSGVNTYYADSVKGRFTISRDNAKNTVFLLMNSLKPEDTAVYYCAADFSAYGYDYWGQGTQVTVSS | low polyreactivity
QVQLVESGGGLVQAGGSLRLSCASSGFTFRSYAMGWYRQAPGKERELVAAIRWSGDSTYYADSVKGRFTISRDNAKNTVYLQMTSLKPEDTAVYYCAAGTYLRYGYWGQGTQVTVSS | high polyreactivity
QVQLVESGGGLVQAGGSLRLSCASSGFTFVYNAMGWYRHAPGKERELVAAITSGGNTYYADSVKGRFTISRDNAKNTVYLQMNSLIPEDTAVYYCAKRGYGRYYAYDYWGQGTQVTVSS | high polyreactivity
QVQLVESGGGLVQAGGSLRLSCASSGFTFWYYAMGWYRQAPGKERELVASISRTGGTTYYADSVKGRFTISRDNAKNTVYLQMNSLKPEDTAVYYCNARPKVYYREYDYWGQGTQVSVSS | high polyreactivity
QVQLVESGGGLVQAGGSLRLSCASSGFTFYYYAMGWYRQAPGKEMELVAAIDTSDGSTYYADSVKGRFTISRDNAKNTVYLQMNSLKPEDTAVYYCAAEVDWVPFLLDYWGQGTQVTVSS | low polyreactivity
QVQLVESGGGLVQAGGSLRLSCASSGFTSRYVMGWYRQAPGKEMELVASISRSGGSTYYADSVKGRFTISRDNAKNTVYLQMNSLKPEDTAVYYCAADATPTDMDYLGQGTQVTVSS | high polyreactivity
QVQLVESGGGLVQAGGSLRLSCASSGGTFTAYAMGWYSQAPGKERELVAAITTNGGRTYYADSVKGRFTISRDNAKNTVYLQMNSLKPEDTAVDYCNRVSLSRRWFLYDYWGQGTQVTVSS | high polyreactivity
QVQLVESGGGLVQAGGSLRLSCASSGIIFHYYAKGWYRQAPGKERELVATISWDGGNTYYADSVKGRFTISRDNAKNRVYLQMNSLKPEDTAVYYCNVYDKAPAYAYWGQGTQVTVSS | low polyreactivity
QVQLVESGGGLVQAGGSLRLSCASSGIIFYTYAMGWYRQAPGKERELDAAITQTSAPTYYADSVKGRFTISRDNAKNTVYLQMNSLNPEDTAVYYCAAVPSYRVQGGRMYYWGQGTQVTVSS | high polyreactivity
QVQLVESGGGLVQAGGSLRLSCASSGISFRRNAMGWYRQAPGKERELVAISTICGSTYYADSVNGRFTIARDNAKNTVYLQMNTLKPEDTAVYYCAAEGKSTGVYLDGGEGFAYDYWGQGTQVTVSS | low polyreactivity
QVQLVESGGGLVQAGGSLRLSCASSGITFDKYAMGWYRQAPGKERELVAAINRSGGSTYYADSVKGRFTISRDNAKNTVYLQINSLKPEDTAVYYCAAVKPPDYYYWGQGTQVTVSS | high polyreactivity
QVQLVESGGGLVQAGGSLRLSCASSGITFPGNAMGWYRQAPGKERELVAGISDGDSTNYADSVKGRFTISRDNAKNTVYLQMNSLKPEVTAVYYCNAQGTTETSGGGFFRGMDYWGQGTQVTVSS | low polyreactivity
QVQLVESGGGLVQAGGSLRLSCASSGITFPNYAMGWSRQAPGNERELVAAISSSGGSTYYADSVKGRFTISRDKAKNTGYLQMNSLKPEDTAVYYCATAINVYPRMDYGYWGQGTQVTVSS | low polyreactivity
QVQLVESGGGLVQAGGSLRLSCASSGLIFSIYAMGWYRQAPGKERELVAAIRWSGGSTYYADSVKGRFTISRDNAKNTVYLQMNSLKPEDTADYYCNADITVYVRIYQYNYWGQGTQVTVSS | low polyreactivity
QVQLVESGGGLVQAGGSLRLSCASSGLISRRNAMGWYRQAPGKERELVAAISTGSSTNYADSVKGRFTISRDNAKNTVYLQMNSLKPEDTAVYYCAATQYWWSTLGIRDDYWGQGTQVTVSS | low polyreactivity
QVQLVESGGGLVQAGGSLRLSCASSGLTFHFYTMGWYRQAPGKERELVASITSGGITYYADSVKGRFTISRDNAKNTVYLQMNSLKPEDTAVYYCAATYQFIYTDFDYWGQGTQVTVSS | high polyreactivity
QVQLVESGGGLVQAGGSLRLSCASSGLTFTPNAMGWYRQAPGKEREFVAAITWRGGRTYYADSVKGRFTISRDNAKNTVYFQMKSLNPEDTAVYYCAVTYRPTYQLDYWGQGTQVTVSS | high polyreactivity
QVQLVESGGGLVQAGGSLRLSCASSGNIFVPNAMGGYRQAPGKERELVAAIRRGGSTNYADSVKGRFTISRDNAQNTVDGQMNSLKPEDTAVYYCAKSRVSFTDLEGYYWGQGTQVTVSS | low polyreactivity
QVQLVESGGGLVQAGGSLRLSCASSGRIFGLYAMGWYRQAPGKERELVAAITLSGDGTDYADSVKGRFTISRDNAKNTVYLQMNSLKPEDTAVYYCAKVGQYWWNMDYWGQGTQVTVSS | low polyreactivity
QVQLVESGGGLVQAGGSLRLSCASSGRIFLVYAMGWYRQAPGKERELVAAISYSGGRTYYADSVKGRFTISRDNAKNTVYLQMNSLKPEDTAVYYCAAKRITYYGGGRFYYWGQGTQVTVSS | high polyreactivity

From the nanobody polyreactivity screen of Harvey et al. (2022)
